Results: the supplement of paper PMC9732359
± gives the uncertainty stated by the source.

assay: protein stability index of a GFP-peptide fusion (yeast GPS) (PSI 1-4); higher = more stable; sorted into four equal gates, so the index is relative within each strain; conditions: pdr5∆
In short: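 The protein stability index of a peptide was calculated by multiplying its read frequency in each gate by that gate's number and adding the products. The peptides were tiled 17-residue stretches of yeast proteins, fused downstream of GFP on a Cherry-expressing plasmid and carried in yeast as a pooled library. Mid-log cultures in leucine-free medium were sorted into four equal gates by GFP/Cherry ratio, and each gate's plasmids were PCR-amplified and Illumina-sequenced.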

Sequence	protein stability index
NFPVRQWSIEIVLLDDE [TAF14]	1.5 ± 0.055
NFRTMQQQQMQQQQQQQ [SSN2]	3.15 ± 0.23
NGASVPINLHPSKLVIT [RPL26A]	1.83 ± 0.06
NGAVGKREGKTRLLNIV [ISW2]	2.95 ± 0.11

same assay, conditions: san1∆

Sequence	protein stability index
MILKLVCQVTKFGLLLQ [ECM29]	2.46 ± 0.072
MIQKVMEYLKSSKSLDL [RPN5]	2.3 ± 0.057
MKEDGLSFVDIVLSKAA [SIR4]	2.74 ± 0.12
MKHLGRSEGNPVIGVFQ [FAS2]	2.9 ± 0.094
MKLKLMIVYYKDAISFI [YCS4]	1.8 ± 0.091
MKLVPSIPPATIETFNE [RPB5]	2.11 ± 0.051
MKMDKSPTESYSDIGGL [RPT2]	3.38 ± 0.055
MKPEVEQELAHILLTEL [FAS2]	2.753 ± 0.025
MKPSDNISTNTNIHEPQ [SSN2]	3.1 ± 0.042
MKVEIDSFSGAKIYPGR [RPL24A]	3.25 ± 0.08
MKWDFAKDIKGYGTQKI [PRE4]	1.84 ± 0.12
MKWSAIPFQTLYRSIES [YJL039C/NUP192]	1.7 ± 0.11
MKYIQTEQQIEVPEGVT [RPL9A]	2.83 ± 0.11
MKYLAAYLLLNAAGNTP [RPP2A]	1.9 ± 0.05
MKYLAAYLLLVQGGNAA [RPP2B]	1.78 ± 0.069
MLASQANGGSTIISPHK [DSN1]	3.45 ± 0.073
MLLEEQLEYKRGEIREI [MED7]	2.69 ± 0.29
MLLGTDLCSLKPYVDRF [DIS3]	2.66 ± 0.067
MLLLNDSVENSSNILED [SRB8]	2.58 ± 0.065
MLMSKIGDVDGLIVNPV [POP5]	2.47 ± 0.041
MLSILEIFKKGYIKNNK [POP6]	3 ± 0.097
MLWNLAAKKAMYTLSAQ [ASC1]	2.06 ± 0.073
MMENYQNISPVYSVDPL [PRP8]	2.21 ± 0.064
MMMQQQLKNVQLDSYLV [MED2]	1.69 ± 0.079

Sequence	protein stability index
MNGNTNANTVFAGSNNQ [YOR098C/NUP1]	3.31 ± 0.16
MNGRSLTYAQQQLNKQR [SNF6]	3.02 ± 0.15
MNKDQAEKYQERSLRQK [SNM1]	3.35 ± 0.069
MPPKKSWRNITNLSGGE [SMC4]	2.64 ± 0.12
MPPKQQLSKAAKAAAAL [RPS25A]	1.76 ± 0.062
MPQSGTGVSVEAVDDVF [RPN11]	3 ± 0.092
MPRAPRTYSKTYSTPKR [RPS9A]	2.68 ± 0.053
MQANTNALRRNLLKDEG [SSN3]	2.98 ± 0.21
MQDPDGIDINTKIFNSV [YCG1]	2.54 ± 0.17
MQRHVKVDGKVRTDTTY [RPS4A]	3.03 ± 0.088
MRILSNDITNLQLSKTP [SRB8]	2.92 ± 0.052
MRSTSILTEHLGYPPIS [MTW1]	2.87 ± 0.062
MSDEDNNYDDFMLSDDE [RRI2]	3.28 ± 0.25
MSGAAAASAAGYDRHIT [SCL1]	3.27 ± 0.12
MSHRKYEAPRHGHLGFL [RPL3]	2.9 ± 0.099
MSLPATFDLTPEDAQLL [RPS0A]	2.47 ± 0.15
MSLSNKTVKELRQLLKE [RRI1]	1.28 ± 0.11
MSREGFQIPTNLDAAAA [RPC10]	1.35 ± 0.16
MSRPQVTVHSLTGEATA [RPL4A]	1.88 ± 0.059
MSSAAEKKPASKAPAEK [HTB2]	2.69 ± 0.08
MSSTTPKLESVKWQYDP [SNF12]	3.09 ± 0.048
MSVQDTKAVEFSMGHIR [MED4]	3.22 ± 0.069
MTLKEMYQMITMGGNAE [SMC4]	2.44 ± 0.058
MTMLTPNYLHLVSSYLN [YML103C/NUP188]	1.69 ± 0.051

Sequence	protein stability index
MTMQVAVPRDELGRSNY [FAS1]	2.99 ± 0.047
MTTFRFCRDCNNMLYPR [RPB9]	3.41 ± 0.14
MTTSAVSPTVGKLFSDI [YIL149C/MLP2]	3.24 ± 0.044
MTTWRKLYTKELSVTGS [YMR129W/POM152]	1.41 ± 0.14
MVDESDKKQQTIDEQSQ [RPN1]	3.38 ± 0.11
MVKNVKPSSPPDVKSLV [SIR4]	2.97 ± 0.085
MVLRNVMEYDVKFYEIF [SRB8]	1.62 ± 0.099
MVRLKSRYILFEIIFPP [POP5]	1.52 ± 0.084
MVTSNVVLVSGEGERFT [SKP1]	2.26 ± 0.12
MYTRLCICSGMLFEMDG [SIN4]	1.48 ± 0.073
NAAVAGVANTDTAGEES [SWI3]	3 ± 0.046
NAEAKGLDATKLYVSHI [RPL17A]	3.01 ± 0.05
NAIIEANLGKYGILSID [RPL7A]	2.84 ± 0.094
NAKDIQIPVYDTFDGSD [FAS1]	2.07 ± 0.052
NALEHKYFTESDIPVSE [SSN3]	2.76 ± 0.082
NANIFSSVKCFGPIKVE [FAS1]	2.17 ± 0.067
NANRVFRTRFQDGTSVV [SMC2]	2.31 ± 0.26
NARKVVGASVVVVKNWG [RPS12]	2.12 ± 0.24
NATHDEDEFIVQHDQIL [SWP82]	2.96 ± 0.032
NATVNLAMEAILNELEV [YJR042W/NUP85]	2.58 ± 0.12
NAVSFDTTFSDFKEVED [SRB4]	2.6 ± 0.039
NDFTTKLINIKKFDISN [MED1]	1.56 ± 0.28
NDICSVENYETSSAFFY [SIR4]	2.64 ± 0.05
NDLEVGVATKDKFFTLS [SCL1]	3.08 ± 0.072

Sequence	protein stability index
NDNEDDDEEYDYNDVEV [BRR2]	3.34 ± 0.06
NDNIGANRSRFNNEAPP [SMB1]	2.54 ± 0.065
NDPEYMDTSDDAFVATA [DLS1]	3.33 ± 0.14
NDQALIKVLLRQNRRPE [RET1]	3.01 ± 0.079
NDRESVLTNIEVYRTSL [SMC3]	3.05 ± 0.12
NDSFKGLITNKMWFDVQ [PRP8]	3.03 ± 0.11
NDVTRRTVKNILVSVLP [CSL4]	3.11 ± 0.08
NEDDALIYGISDEERDD [AAR2]	3.62 ± 0.066
NEDMVRRANFYKENEAM [SNF12]	3.39 ± 0.057
NEDSKAFHTAVLRLNAI [NUT1]	3.41 ± 0.047
NEGVPSPMLSISNLTQE [FAS1]	2.96 ± 0.058
NEIEGKNEETPQNEKPP [RPC25]	2.22 ± 0.11
NEIKQLGSDSSDGHNSE [SRB4]	2.31 ± 0.078
NEISRNGTMINEVIDKL [PCI8]	2.48 ± 0.072
NELMRWPIVQKTYEPVL [RPN5]	2.24 ± 0.075
NEQAARAANQGALPPDL [CYT1]	2.94 ± 0.053
NERELNVFARLSRLLSL [RPC82]	2.79 ± 0.13
NETSEQLVPIRLEFDQD [SNF5]	3.31 ± 0.11
NEYPVADAVTKDLKLRR [REC8]	3.28 ± 0.038
NFGNNGAGGLNPFTSAT [YOR098C/NUP1]	3.15 ± 0.045
NFKSYRGVTKVGFGESN [SMC1]	2.53 ± 0.15
NFNSVNDANITSNKEGF [SSN2]	3.32 ± 0.054
NFPVRQWSIEIVLLDDE [TAF14]	2.37 ± 0.093
NFRTMQQQQMQQQQQQQ [SSN2]	2.37 ± 0.12
